# Substitutions are numbered along the chain they refer to. Numbers in names are those of the source. Where “and” joins values, the source holds several entries; their conditions need not be identical. Identical values can stand only once.
# B1: HsRAD52-S346X, His-tagged, bacterially expressed (domain or fragment, human, UniProt P43351 1-345, looked up)
# chain: MSGTEEAILGGRDSHPAAGGGSVLCFGQCQYTAEEYQAIQKALRQRLGPEYISSRMAGGGQKVCYIEGHRVINLANEMFGYNGWAHSITQQNVDFVDLNNGKFYVGVCAFVRVQLKDGSYHEDVGYGVSEGLKSKALSLEKARKEAVTDGLKRALRSFGNALGNCILDKDYLRSLNKLPRQLPLEVDLTKAKRQDLEPSVEEARYNSCRPNMALGHPQLQQVTSPSRPSHAVIPADQDCSSRSLSSSAVESEATHQRKLRQKQLQQQFRERMEKQQVRVSTPSAEKSEAAPPAPPVTHSTPVTVSEPLLEKDFLAGVTQELIKTLEDNSEKWAVTPDAGDGVVKP
# notes: RAD52, human, naturally occurring truncating variant S346X (stop codon in place of S346); pET28b construct; also called pLAY970; source: E. coli Artic Express, purified (Ni-NTA, heparin, Superdex 200)
# B2: HsRAD52_(1-212), the N-terminal 212 amino acids of HsRAD52 (domain or fragment, human, UniProt P43351 1-212, looked up)
# chain: MSGTEEAILGGRDSHPAAGGGSVLCFGQCQYTAEEYQAIQKALRQRLGPEYISSRMAGGGQKVCYIEGHRVINLANEMFGYNGWAHSITQQNVDFVDLNNGKFYVGVCAFVRVQLKDGSYHEDVGYGVSEGLKSKALSLEKARKEAVTDGLKRALRSFGNALGNCILDKDYLRSLNKLPRQLPLEVDLTKAKRQDLEPSVEEARYNSCRPNM
# notes: RAD52, human, N-terminal 212 amino acids (1-212); pET28b construct; also called pLAY855; source: E. coli Artic Express, purified (Ni-NTA, heparin, Superdex 200)
# B3: HsRAD52-G59R_(1-212), the N-terminal 212 amino acids of HsRAD52-G59R (domain or fragment, human, UniProt P43351 1-212, looked up)
# chain: B2 chain with G59R
# notes: RAD52, human, N-terminal 212 amino acids (1-212) with the naturally occurring variant G59R; pET28b construct; also called pLAY971; source: E. coli Artic Express, purified (Ni-NTA, heparin, Superdex 200)
# B4: HsRAD52 (human RAD52), wild type, Gal4 fusion proteins (natural protein, UniProt P43351 1-418, looked up)
# chain: MSGTEEAILGGRDSHPAAGGGSVLCFGQCQYTAEEYQAIQKALRQRLGPEYISSRMAGGGQKVCYIEGHRVINLANEMFGYNGWAHSITQQNVDFVDLNNGKFYVGVCAFVRVQLKDGSYHEDVGYGVSEGLKSKALSLEKARKEAVTDGLKRALRSFGNALGNCILDKDYLRSLNKLPRQLPLEVDLTKAKRQDLEPSVEEARYNSCRPNMALGHPQLQQVTSPSRPSHAVIPADQDCSSRSLSSSAVESEATHQRKLRQKQLQQQFRERMEKQQVRVSTPSAEKSEAAPPAPPVTHSTPVTVSEPLLEKDFLAGVTQELIKTLEDNSEKWAVTPDAGDGVVKPSSRADPAQTSDTLALNNQMVTQNRTPHSVCHQKPQAKSGSWDLQTYSADQRTTGNWESHRKSQDMKKRKYDPS
# notes: RAD52, human, wild type; no chain carries both; Probably the whole protein; also called pGBT9-HsRAD52; pGAD424-HsRAD52; source: yeast two-hybrid fusion, yeast strain Y187
# Columns and labels:
# [1] = molecular target: the molecule itself; assay: SEC; Superdex 200 in 10 mM Tris HCl, 300 mM NaCl, 2 mM BME, pH 8.0, 0.5 mL/min; size of the multimer estimated from the elution volume
# [2] = molecular target: the molecule itself; assay: two-hybrid; Gal4 DNA-binding domain (pGBT9) and Gal4 transcription activation domain (pGAD424) fusions in yeast strain Y187; beta-galactosidase specific activity in cell extracts, Miller units
Protein,stoichiometry N [1],"beta-galactosidase activity, fold above background [2] [fold]"
B1,~6 subunits and ~8 subunits,
B2,13 subunits and 14 subunits,
B3,13 subunits and 14 subunits,
B4,,80
